From patent publication US20250340608A1 (PROTAGONIST THERAPEUTICS, published 2025)
Numbered stars: 1 amine (or outer) side, 2 acyl side, 3 side chain; on linkers, the order of the positions; unused ones are H or OH. Square brackets hold non-standard residues; d marks the D form. Primed or numbered codes have the meaning given here. Ends that are not written are not given here. * marks the point of attachment. Ida = iminodiacetic acid, O=C(CN(CC(=O)[*:3])[*:1])[*:2]; PEG8′ = PEG8 conjugated to the Lys side chain; Palmitoyl = CCCCCCCCCCCCCCCC(=O)*; β3hP = O=C(O)C[C@@H]1CCCN1; Isovaleryl = CC(C)CC(=O)*; PEG11′ = not defined here; Isobutyryl = CC(C)C(=O)*; Octanoyl = CCCCCCCC(=O)*

T1: human ferroportin (SLC40A1) fused in frame with GFP, stably expressed in HEK293 cells (human, UniProt Q9NP59 1-571)
T1 sequence (looked up): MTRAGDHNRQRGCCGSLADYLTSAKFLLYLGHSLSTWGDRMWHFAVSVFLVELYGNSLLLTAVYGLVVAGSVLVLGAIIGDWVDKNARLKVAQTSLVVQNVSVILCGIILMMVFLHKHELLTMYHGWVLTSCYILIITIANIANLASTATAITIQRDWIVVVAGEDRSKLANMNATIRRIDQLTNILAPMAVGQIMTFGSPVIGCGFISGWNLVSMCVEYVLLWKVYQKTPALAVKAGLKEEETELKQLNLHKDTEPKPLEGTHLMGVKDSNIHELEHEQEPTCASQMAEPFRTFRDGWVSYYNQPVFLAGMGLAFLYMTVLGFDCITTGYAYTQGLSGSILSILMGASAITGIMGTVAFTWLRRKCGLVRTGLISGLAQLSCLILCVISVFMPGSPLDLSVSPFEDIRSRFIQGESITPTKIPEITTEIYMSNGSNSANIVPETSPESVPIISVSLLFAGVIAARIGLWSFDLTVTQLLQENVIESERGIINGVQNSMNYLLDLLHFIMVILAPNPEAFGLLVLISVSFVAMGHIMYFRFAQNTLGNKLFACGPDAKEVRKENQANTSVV

B1: Compound 86 (peptide)
peptide: H-DTHFPCIIFGPRSKGWVCK-NH2
modifications: not fully specified (bridges); printed as Hy-DTHFPCIIFGPRSKGWVCK-NH2; cysteine pairing not given here
B2: Compound 87 (peptide)
peptide: H-DTHFPCIIFGPRARGWVCK-NH2
modifications: not fully specified (bridges); printed as Hy-DTHFPCIIFGPRARGWVCK-NH2; cysteine pairing not given here
B3: Compound 84 (peptide)
peptide: H-DTHFPCIIFGPRSRGVCK-NH2
modifications: not fully specified (bridges); printed as Hy-DTHFPCIIFGPRSRGVCK-NH2; cysteine pairing not given here
B4: Compound 102 (peptide)
peptide: H-DTHFPCIKFGPRSKGWVCK-NH2
modifications: not fully specified (bridges); printed as Hy-DTHFPCIKFGPRSKGWVCK-NH2; cysteine pairing not given here
B5: Compound 85 (peptide)
peptide: H-DTHFPCIYFGPRSKGWVCK-NH2
modifications: not fully specified (bridges); printed as Hy-DTHFPCIYFGPRSKGWVCK-NH2; cysteine pairing not given here
B6: Compound 110 (peptide)
peptide: [Ida]THFPCIIFGPRSRGWVCK-NH2
modifications: not fully specified (bridges); printed as [Ida]-THFPCIIFGPRSRGWVCK-NH2; cysteine pairing not given here
B7: Compound 103 (peptide)
peptide: H-EDTHFPCIIFGPRSKGWVCK-NH2
modifications: not fully specified (bridges); printed as Hy-EDTHFPCIIFGPRSKGWVCK-NH2; cysteine pairing not given here
B8: Compound 101 (peptide)
peptide: H-DTHFPCISFGPRSKGWVCK-NH2
modifications: not fully specified (bridges); printed as Hy-DTHFPCISFGPRSKGWVCK-NH2; cysteine pairing not given here
B9: Compound 89 (peptide)
peptide: {Palmitoyl-PEG11′}-DTHFPCIIFGPRSRGWVCK-NH2
modifications: not fully specified (bridges); printed as Palm-PEG11-DTHFPCIIFGPRSRGWVCK-NH2; cysteine pairing not given here
B10: Compound 79 (peptide)
peptide: H-DTHF[β3hP]CIIFGPRSRGWVCK-NH2
modifications: not fully specified (bridges); printed as Hy-DTHF[bh-Pro]-CIIFGPRSRGWVCK-NH2; cysteine pairing not given here

molecular target: T1, human ferroportin (SLC40A1) fused in …; experiment: cell-based or functional assay

| Potency EC50 (nM) | Potency EC50 [µM] | Binder |
| --- | --- | --- |
| > 1000 |  | B1 |
| > 1000 |  | B2 |
|  | 0.015 | Isovaleryl-DTHFPCIIFGPRSKGWCK-NH2 (not fully specified (bridges); cysteine pairing not given here) [Compound 113] |
| > 1000 |  | H-DTHFPCIIFGPRSRGWVCK-NH2 (cysteine pairing not given here) [Compound 83] |
| > 1000 |  | B3 |
|  | 0.02 | Isovaleryl-DTKFPCIIFGPRSKGWVCK-NH2 (cysteine pairing not given here) [Compound 147] |
| > 1000 |  | Isovaleryl-DTHFKCIEFGPRSKGWVCK-NH2 (cysteine pairing not given here) [Compound 140] |
| > 1000 |  | B4 |
| > 1000 |  | H-DTHFPCIRFGPRSRGWVCK-NH2 (cysteine pairing not given here) [Compound 81] |
| > 1000 |  | H-HFPCIIFGPRSKGWVCM-NH2 (cysteine pairing not given here) [Compound 133] |
|  | 0.545 | H-DTHFPCISFGPRSKGWVCM-NH2 (cysteine pairing not given here) [Compound 135] |
|  | 0.05 | Isovaleryl-DTHFSCIIFGPRSKGWVCK-NH2 (not fully specified (bridges); cysteine pairing not given here) [Compound 107] |
| > 1000 |  | H-DTHFPCIRFGPRSRGWRCK-NH2 (cysteine pairing not given here) [Compound 82] |
|  | 0.018 | Isovaleryl-DTHFPCIIFGPRSKGVC-NH2 (not fully specified (bridges); cysteine pairing not given here) [Compound 114] |
|  | 0.705 | B5 |
|  | 0.01 | Isovaleryl-DTHFPCIIFEPRSKGWVCK-NH2 (not fully specified (bridges); cysteine pairing not given here) [Compound 105] |
| > 1000 |  | H-THFPCIIFGPRSKGWVCM-NH2 (cysteine pairing not given here) [Compound 132] |
|  | 0.669 | H-DTHFPCIKFGPRSKGWVCM-NH2 (cysteine pairing not given here) [Compound 136] |
| > 1000 |  | Isovaleryl-HFPCIIFGPRSKGWVCM-NH2 (cysteine pairing not given here) [Compound 134] |

| Potency EC50 (nM) | Potency EC50 [µM] | Binder |
| --- | --- | --- |
|  | 0.009 | Isovaleryl-DTHFPCIK(PEG8′)FGPRSKGWVCK-NH2 (cysteine pairing not given here) [Compound 149] |
|  | > 0.3 | B6 |
| > 1000 |  | B7 |
|  | 0.018 | Isovaleryl-DTHFPCIKFGPRSKGWVCK(PEG8′)-NH2 (cysteine pairing not given here) [Compound 153] |
|  | 0.015 | Isovaleryl-DTHFPCIIFEPRSKGWVCKKKK-NH2 (cysteine pairing not given here) [Compound 144] |
| > 1000 |  | {Isobutyryl-PEG11′}-DTHFPCIIFGPRSRGWVCK-NH2 (not fully specified (bridges); cysteine pairing not given here) [Compound 109] |
| > 1000 |  | {Octanoic acid-PEG11′}-DTHFPCIIFGPRSRGWVCK-NH2 (not fully specified (bridges); cysteine pairing not given here) [Compound 108] |
|  | 0.018 | Isovaleryl-DTHFPCIKFGPRSKGWTCK-NH2 (cysteine pairing not given here) [Compound 154] |
|  | 0.007 | DTHFPCIKFKPRSKGWVCK (N-terminal isovaleric acid; PEG8 on side chain of Lys 10; C-terminal amide) [Compound 150] |
|  | 0.873 | H-EDTHFPCIIFGPRSKGWVCM-NH2 (cysteine pairing not given here) [Compound 137] |
| > 1000 |  | H-DTHFPCIIFGPRSRGWRCK-NH2 (cysteine pairing not given here) [Compound 80] |
|  | 0.009 | Isovaleryl-DTHFPCIIFGPRSKGWVCKK-NH2 (cysteine pairing not given here) [Compound 145] |
| > 1000 |  | B8 |
|  | 0.015 | Isovaleryl-DTHFPCIKFGPKSKGWVCK-NH2 (not fully specified (bridges); cysteine pairing not given here) [Compound 112] |
| > 1000 |  | B9 |
| > 1000 |  | Octanoyl-DTHFPCIIFGPRSRGWVCK-NH2 (not fully specified (bridges); cysteine pairing not given here) [Compound 88] |
| > 1000 |  | B10 |
|  | 0.009 | Isovaleryl-DTHFPCIIFEPRSKGWVCK-NH2 (cysteine pairing not given here) [Compound 142] |
